From patent US20250320288A1 (ELIXIRON IMMUNOTHERAPEUTICS HONG KONG, published 2025)

Molecular target: recombinant human IFN-γ (human)
Experiment: cell-based or functional assay

Sequence of recombinant human IFN-γ (human) (P01579 24-161): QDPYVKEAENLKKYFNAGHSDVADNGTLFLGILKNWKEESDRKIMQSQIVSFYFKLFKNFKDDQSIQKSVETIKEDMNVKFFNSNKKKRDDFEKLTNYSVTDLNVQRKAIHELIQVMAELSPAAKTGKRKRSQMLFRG

EC50 restoring melanogenesis (melanin content, absorbance at 470 nm) of human primary melanocytes cultured with 20 ng/mL IFN-γ for 7 days: 0.129 µg/mL
B1: EI-001 (2A6Q), human monoclonal anti-IFN-γ antibody (antibody, human IgG1, lambda, V domains shown)
VH: EVQLVESGGGLVKPGDSLTVSCVASGFTFSNYFIHWVRQAPGKGLEWVATISGRTKYMFYSDSLRGRFTVSRDNAQNSVYLHMSSLRGEDTALYYCVRGYDHSDSNSAADLLHWGRGTLVTVSS
VL: NFMLTQPLSVSGYPGKTIVISCVRSSGSVASHYVQWFQQRPGSAPAMVIYEDSHRPSGIPDRFSGSVDASSNSASLTISGLKTEDEADYFCQSYYGNNQVLFGGGTKLTVLG
EC50 of EI-001 restoring viability of human primary melanocytes cultured with 30 ng/mL IFN-γ (CellTiter-Glo, 72 hrs): 0.00521 µg/mL
